Reference: the supplement of paper PMC12455559
± gives the standard deviation of the averaged measurements.

How the values were obtained:
[1] = PET hydrolysis, aromatic products released after 48 h (umol product/mg enzyme); higher = more PET depolymerization activity
Outline: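 Sealed plates containing 3.5 mg PET (amorphous film or crystalline powder), 450 μL buffer and 5 μg (50 μL) tagless candidate enzyme were held 48 h at 40 or 60 °C with no shaking. Supernatants were then read at 260 and 280 nm against buffer blanks. The aromatic product detected this way, per mg enzyme, defines PET hydrolysis activity.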

[2] = purified protein yield per well (BCA); higher = higher soluble expression
Outline: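 Candidate enzymes were expressed in E. coli C41(DE3) in 2 mL autoinduction cultures with 100 µg/mL kanamycin, at 37 °C for 2 h and then 18 °C for 40 h. Cells were lysed, and protein was bound to Ni-charged magnetic beads and released by SUMO protease cleavage on an OT-2 robot. The read-out is purified protein yield per well, measured with the Pierce Rapid Gold BCA kit. Values below 25 ug (0.1 mg/mL) are below the detection threshold.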

[3] = melting temperature (DSF); higher = more thermostable
Outline: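 On a Bio-Rad CFX96, fluorescence of 45 μL enzyme (0 to 0.3 mg/mL) mixed with 5 μL 5X Sypro Orange in sealed PCR plates was followed from 25 °C through 250 cycles of 0.3 °C, with a 0.3 °C/s ramp. The enzymes had been expressed in E. coli C41(DE3), taken up on nickel beads and released by SUMO protease. Melting temperature, measured by differential scanning fluorimetry, is the value given.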

[4] = substrate: aFilm, 40 °C, pH 5.5
[5] = substrate: aFilm, 40 °C, pH 6.5
[6] = substrate: aFilm, 40 °C, pH 7.5
[7] = substrate: aFilm, 60 °C, pH 5.5
[8] = substrate: aFilm, 60 °C, pH 6.5
[9] = substrate: aFilm, 60 °C, pH 7.5
[10] = substrate: cryPow, 40 °C, pH 5.5
[11] = substrate: cryPow, 40 °C, pH 6.5
[12] = substrate: cryPow, 40 °C, pH 7.5
[13] = substrate: cryPow, 60 °C, pH 5.5
[14] = substrate: cryPow, 60 °C, pH 6.5
[15] = substrate: cryPow, 60 °C, pH 7.5
[16] = substrate: aFilm, 40 °C, pH 4.5
[17] = substrate: aFilm, 60 °C, pH 4.5
[18] = substrate: cryPow, 40 °C, pH 4.5
[19] = substrate: cryPow, 60 °C, pH 4.5

Sequence | PET hydrolysis [1, 4] | PET hydrolysis [1, 5] | PET hydrolysis [1, 6] | PET hydrolysis ([1]; substrate: aFilm, 40 °C, pH 8.5) | PET hydrolysis [1, 7] | PET hydrolysis [1, 8] | PET hydrolysis [1, 9] | PET hydrolysis ([1]; substrate: aFilm, 60 °C, pH 8.5) | PET hydrolysis [1, 10] | PET hydrolysis [1, 11] | PET hydrolysis [1, 12] | PET hydrolysis ([1]; substrate: cryPow, 40 °C, pH 8.5) | PET hydrolysis [1, 13] | PET hydrolysis [1, 14] | PET hydrolysis [1, 15] | PET hydrolysis ([1]; substrate: cryPow, 60 °C, pH 8.5) | purified protein yield per well [2] | melting temperature [3] | PET hydrolysis [1, 16] | PET hydrolysis [1, 17] | PET hydrolysis [1, 18] | PET hydrolysis [1, 19]
ADNPYQRGPNPTQASIAANRGTFATAETSVGGGNGFGGAKIYYPTDTSQGTFGAIAVSPGYTATWAAEGAWMGHWLASFGFVVIGIDTINRNDREYARGTQLLAALDYLTQRSSVRTRVDPNRLAVMGHSMGGGGTISAALRRPTLKAAIGLAPYYPSQSTSGMQVPTMLLAGQNDGTSTPASIVTFYNDIPASTEKVYLELTGAGHGFPTSNNSVVTRKVIPWMKIFIDQDTRYTQFLCPLQDLTGIRTYRNSCPLLPNDPGTTFSLAGSASGKCADVPGRVQTNGTGLIIWTCNNAGNQQWTQTPAGELRIYGNTKCMDANASGQGARVTINTCNGGNSQKWTVNTNGTVTNAASGRCLDAGGTADNSPVVVNTCNAASGQTWTKRP [DP047] | < 3 | < 3 | < 3 | < 3 | < 3 | < 3 | < 3 | < 3 | < 3 | < 3 | < 3 | < 3 | < 3 | < 3 | < 3 | < 3 | 311 µg | 49.9 C |  |  |  | 
ADNPYQRGPNPTRESVAANRGTFATAETSVGGGNGFGGAKIYYPADTSQGKFAALAVVPGYTATWAAEGAWMGHWLASFGFVIIGIDTNSRNDWDTARGDQLLAALDYLTQRSSVRDRVDANRLGVMGHSMGGGGAISAALKRPTLKAAIGNAPFSASQNLTTMRVPIALNAGQRDGTVTPSMVTGYYNQVPATTEKMYLEFSGAGHAFPTSNNSALTRKIIPWMKIFLDQDTRYQQFLCPVMDNTGISASRSSCPLIPGDPTPPTDTYSLAGAASGKCADVEGRSQTNGAKLLLWPCNGQVNQRWTQTAAGELRVYDNPKCMDAGGSGQGERVTSNACNGGNSQKWTVNANGTVTNTTSGRCLDATGTADDAPVVVNTCNGAASQNWSKRS [TEP131] | < 3 | < 3 | < 3 |  | < 3 | < 3 | < 3 |  | < 3 | 4 | 6.5 ± 0.71 |  | < 3 | < 3 | < 3 |  | 331 µg | 55.3 C | < 3 | < 3 | < 3 | < 3
ADNPYQRGPNPTRESVAASRGTFATAETSVGGGNGFAAAKIYYPTDTGQGKFGAIAVVPGYTATWAAEGAWMGHWLASFGFVVIGIDTLSRNDWDVARGTQLLAALDYLTQRSSVRDRVDATRLAVMGHSMGGGGAISAALRRPSLKTAIGNAPFSASQNLNNMQIPTALLAGQRDGTTTPSSISGYYNQIPAGVEKMYLELTGAGHGFPTSNNSVMTRKVIPWMKIFIDNDTRYHQFLCPLMDNTGISAYRSTCPLIPGDPTPPSDTYSLVGAASGKCADVEGVSQANGARLLLWTCNGQVNQRWTQTAAGELRVYDNPKCMDAGASAQGTRVTINACNGGNSQKWTVNANGTVTNAASGRCLDAGGTADNSPVVVNTCTGGSSQNWSKRS [TEP029] | < 3 | < 3 | < 3 |  | < 3 | < 3 | < 3 |  | < 3 | 14.5 ± 5 | 15.5 ± 0.71 |  | < 3 | < 3 | < 3 |  | 282 µg | 57.7 C | < 3 | < 3 | < 3 | < 3
ADNPYQRGPNPTVASVAATRGTFATAQTSVPAGNGFGGGVIYYPTDTSQGTFGGVAIVPGYSALFANEEAWMGPWLASFGFVVIGIETNSRTDSADARGTQLLAALDYLTQRSSVRDRVDPNRLSVVGHSAGGAGVLSAILRRPSLKAGIGLAPGSPVGDYSLSNDRVPTMFISGQRDTTVTQSYLNGLYTTIPASTPSAWVEITGVDHLFATRANTTEMRVLIPWLKIWVDNDTRYTQFLCPLADSTGISMYRNKCPYVPPGGSSPSPSPSPSSSPSRFPSPSPSPSPSQSPSQSPSASPSPPPPGACVAEYRTVNSWPGGYQGEVTVTAGGSAVNGWTVRWTLGSGQTITQLWNGTLSTSGSAVTVKNASFNGSIPASGSATFGFLATGTPSTPSLTCTSP [ESM015] |  |  |  |  |  |  |  |  | < 3 | < 3 | < 3 |  | < 3 | < 3 | < 3 |  | 540 µg | 60.7 C |  |  | < 3 | < 3
ADQRGPDPTVQSIEAARGPFATSTSRVSSLVSGFGGGTIYYPTDTSQGRFGGVVIAPGYTAGESSIAWLGPRLASQGFVVFTIDTLTRVDQPASRGRQLLAAADYLTQRSDVADRVDPARLAVMGHSMGGGGTLEAAKSRPGLKAIIPLTPWNLDKTWPEITTPTLIFGAQNDSVASVVTHARPFYQSLPATTPRSYLELRGASHFAPNLSNTTIAKYSIAWLKRFVDDDQRYTQFLCPAPADTALSDVRTSCPF [TEP091] |  |  |  |  |  |  |  |  | 5 | 10 | 17 |  |  |  |  |  | 36.2 µg | 55.6 C |  |  | < 3 | 
